ChEMBL document CHEMBL4038281, “Competitive protein tyrosine phosphatase 1B (PTP1B) inhibitors, prenylated caged xanthones from Garcinia hanburyi and their inhibitory mechanism” (Bioorg Med Chem, 2017)

Key:
[1] = substrate: CC(C)=CCC[C@]1(C)C=Cc2c(O)c3c(c(CC=C(C)C)c2O1)O[C@]12C(=C[C@@H]4C[C@H]1C(C)(C)O[C@@]2(C/C=C(/C)C(=O)O)C4=O)C3=O; details: Homo sapiens; 12.4 uM
[2] = substrate: CC(C)=CCC[C@]1(C)C=Cc2c(O)c3c(c(CC=C(C)C)c2O1)O[C@]12C(=C[C@@H]4C[C@H]1C(C)(C)O[C@@]2(C/C=C(/C)C(=O)O)C4=O)C3=O; details: Homo sapiens; 24.8 uM
[3] = substrate: CC(C)=CCC[C@]1(C)C=Cc2c(O)c3c(c(CC=C(C)C)c2O1)O[C@]12C(=C[C@@H]4C[C@H]1C(C)(C)O[C@@]2(C/C=C(/C)C(=O)O)C4=O)C3=O; details: Homo sapiens; 49.6 uM
[4] = substrate: CC(C)=CCC[C@]1(C)C=Cc2c(O)c3c(c(CC=C(C)C)c2O1)O[C@]12C(=C[C@@H]4C[C@H]1C(C)(C)O[C@@]2(C/C=C(/C)C(=O)O)C4=O)C3=O; details: Homo sapiens; 24.8 uM; remark: listed apart in the source
Description: Competitive inhibition of recombinant human PTP1B (1 to 322 residues) expressed in Escherichia coli assessed as substrate Km at 24.8 uM using pNPP as substrate by Lineweaver-Burk plot analysis

[5] = substrate: CC(C)=CCC[C@]1(C)C=Cc2c(O)c3c(c(CC=C(C)C)c2O1)O[C@]12C(=C[C@@H]4C[C@H]1C(C)(C)O[C@@]2(C/C=C(/C)C(=O)O)C4=O)C3=O; details: Homo sapiens; 49.6 uM; remark: listed apart in the source
Description: Competitive inhibition of recombinant human PTP1B (1 to 322 residues) expressed in Escherichia coli assessed as substrate Km at 49.6 uM using pNPP as substrate by Lineweaver-Burk plot analysis

[6] = substrate: CC(C)=CCC[C@]1(C)C=Cc2c(O)c3c(c(CC=C(C)C)c2O1)O[C@]12C(=C[C@@H]4C[C@H]1C(C)(C)O[C@@]2(C/C=C(/C)C(=O)O)C4=O)C3=O; details: Homo sapiens; 12.4 uM; remark: listed apart in the source
Description: Competitive inhibition of recombinant human PTP1B (1 to 322 residues) expressed in Escherichia coli assessed as substrate Km at 12.4 uM using pNPP as substrate by Lineweaver-Burk plot analysis

B1: Tyrosine-protein phosphatase non-receptor type 1 (Homo sapiens), P18031 (protein)
chain: MEMEKEFEQIDKSGSWAAIYQDIRHEASDFPCRVAKLPKNKNRNRYRDVSPFDHSRIKLHQEDNDYINASLIKMEEAQRSYILTQGPLPNTCGHFWEMVWEQKSRGVVMLNRVMEKGSLKCAQYWPQKEEKEMIFEDTNLKLTLISEDIKSYYTVRQLELENLTTQETREILHFHYTTWPDFGVPESPASFLNFLFKVRESGSLSPEHGPVVVHCSAGIGRSGTFCLADTCLLLMDKRKDPSSVDIKKVLLEMRKFRMGLIQTADQLRFSYLAVIEGAKFIMGDSSVQDQWKELSHEDLEPPPEHIPPPPRPPKRILEPHNGKCREFFPNHQWVKEETQEDKDCPIKEEKGSPLNAAPYGIESMSQDTEVRSRVVGGSLRGAQAASPAKGEPSLPEKDEDHALSYWKPFLVNMCVATVLTAGAYLCYRFLFNSNT
B1 was tested, and the Vmax (optical density/minute) [1] was 12.6, the Vmax (optical density/minute) [2] was 12.9 and the Vmax (optical density/minute) [3] was 13.7. It also gave a Km [4] of 6.84 mM, a Km [5] of 12.7 mM and a Km [6] of 4.46 mM.
